Assay results from doi:10.1101/444570 (bioRxiv, 2018).

B1: Sli15-2xStrep/Ipl1 (wild type, not phosphorylated) (complex)
chain 1: MDWAIKAARKKTQRKPGSTRSIIETLDDLNNLTTDAHSEINQRLYESSEWLRNNVYMNTLKYEDKKMEESLISPENTHNKMDVEFPKMKGEYELSNSQNDAAKDVTKTPRNGLHNDKSITPKSLRRKEVTEGMNRFSIHDTNKSPVEPLNSVKVDANESEKSSPWSPYKVEKVLRESSKTSESPINTKRFDNQTWAAKEEMENEPILQALKKAESVKVKPPPNSGIARSQRRSNMFVPLPNKDPLIIQHIPPTKSSGSIPKVRTVKESPIAFKKKSTINSPAIRAVENSDTAGSTKASSVFDRLSSIPTKSFENKISRGNVGHKYSSSSIDLTGSPMKKVSQKFKSINSTDTDMQEALRDIFSVKNKITKNNSPKGKNSRKSSIPRFDKTSLKLTTHKKLAIIAEQKKKSKHSSDVHKTGSRPHSISPTKISVDSSSPSKEVKNYYQSPVRGYLRPTKASISPNKNKNLTTSQTPHRLKIKEKTLRKLSPNIADISKPESRKSKNYRLTNLQLLPPAEAERDDLKKKFDKRLSGIMRSQQEHHRRKQEKQKRMSHLEQDLKKQTSFSNDYKDIRLKESLAPFDNHVRDTINKNTAFSTDNILATINTVDHREIIGNVTPKIASVNDSLPEINTDSEDEASVTLAAWAKSPYLQEQLIRQQDINPQTIFGPIPPLHTDEIFPNPRLNRLKPRQIVPKRS
chain 2: MQRNSLVNIKLNANSPSKKTTTRPNTSRINKPWRISHSPQQRNPNSKIPSPVREKLNRLPVNNKKFLDMESSKIPSPIRKATSSKMIHENKKLPKFKSLSLDDFELGKKLGKGKFGKVYCVRHRSTGYICALKVMEKEEIIKYNLQKQFRREVEIQTSLNHPNLTKSYGYFHDEKRVYLLMEYLVNGEMYKLLRLHGPFNDILASDYIYQIANALDYMHKKNIIHRDIKPENILIGFNNVIKLTDFGWSIINPPENRRKTVCGTIDYLSPEMVESREYDHTIDAWALGVLAFELLTGAPPFEEEMKDTTYKRIAALDIKMPSNISQDAQDLILKLLKYDPKDRMRLGDVKMHPWILRNKPFWENKRL
B2: Sli15∆N2-370-2xStrep/Ipl1 (complex)
chain 1: MNNSPKGKNSRKSSIPRFDKTSLKLTTHKKLAIIAEQKKKSKHSSDVHKTGSRPHSISPTKISVDSSSPSKEVKNYYQSPVRGYLRPTKASISPNKNKNLTTSQTPHRLKIKEKTLRKLSPNIADISKPESRKSKNYRLTNLQLLPPAEAERDDLKKKFDKRLSGIMRSQQEHHRRKQEKQKRMSHLEQDLKKQTSFSNDYKDIRLKESLAPFDNHVRDTINKNTAFSTDNILATINTVDHREIIGNVTPKIASVNDSLPEINTDSEDEASVTLAAWAKSPYLQEQLIRQQDINPQTIFGPIPPLHTDEIFPNPRLNRLKPRQIVPKRS
chain 2: MQRNSLVNIKLNANSPSKKTTTRPNTSRINKPWRISHSPQQRNPNSKIPSPVREKLNRLPVNNKKFLDMESSKIPSPIRKATSSKMIHENKKLPKFKSLSLDDFELGKKLGKGKFGKVYCVRHRSTGYICALKVMEKEEIIKYNLQKQFRREVEIQTSLNHPNLTKSYGYFHDEKRVYLLMEYLVNGEMYKLLRLHGPFNDILASDYIYQIANALDYMHKKNIIHRDIKPENILIGFNNVIKLTDFGWSIINPPENRRKTVCGTIDYLSPEMVESREYDHTIDAWALGVLAFELLTGAPPFEEEMKDTTYKRIAALDIKMPSNISQDAQDLILKLLKYDPKDRMRLGDVKMHPWILRNKPFWENKRL

Tests used:
[1] = biological target: COMA complex (Ame1/Okp1/Ctf19/Mcm21) (S. cerevisiae (budding yeast), UniProt P38313;P53298;Q02732;Q06675); test: cross-linking
[2] = biological target: Ctf19/Mcm21 heterodimer (wild type) (S. cerevisiae (budding yeast), UniProt Q02732;Q06675); test: pull-down
Chain of Ctf19/Mcm21 heterodimer (wild type) (Q02732 whole entry, chain 1 of 2): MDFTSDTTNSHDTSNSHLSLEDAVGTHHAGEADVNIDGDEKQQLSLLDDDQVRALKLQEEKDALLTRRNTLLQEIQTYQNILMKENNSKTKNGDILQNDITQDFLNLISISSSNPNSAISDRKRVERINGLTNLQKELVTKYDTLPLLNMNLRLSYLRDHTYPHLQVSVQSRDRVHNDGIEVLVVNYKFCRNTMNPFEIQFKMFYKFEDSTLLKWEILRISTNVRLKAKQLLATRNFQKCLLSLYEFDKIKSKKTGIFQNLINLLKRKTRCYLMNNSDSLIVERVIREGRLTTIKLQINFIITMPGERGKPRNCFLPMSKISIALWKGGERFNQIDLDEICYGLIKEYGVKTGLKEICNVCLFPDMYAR
Chain of Ctf19/Mcm21 heterodimer (wild type) (Q06675 whole entry, chain 2 of 2): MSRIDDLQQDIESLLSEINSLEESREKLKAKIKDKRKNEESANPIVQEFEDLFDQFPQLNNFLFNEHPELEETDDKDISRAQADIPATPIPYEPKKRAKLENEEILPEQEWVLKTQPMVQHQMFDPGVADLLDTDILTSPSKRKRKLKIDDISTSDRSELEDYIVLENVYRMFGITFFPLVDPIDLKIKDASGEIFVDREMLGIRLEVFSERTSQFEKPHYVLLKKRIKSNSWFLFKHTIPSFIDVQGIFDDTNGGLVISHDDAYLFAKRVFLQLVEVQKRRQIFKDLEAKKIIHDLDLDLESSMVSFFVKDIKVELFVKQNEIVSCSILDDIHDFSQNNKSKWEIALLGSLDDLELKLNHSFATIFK

Chain of COMA complex (Ame1/Okp1/Ctf19/Mcm21) (P38313 whole entry, chain 1 of 4): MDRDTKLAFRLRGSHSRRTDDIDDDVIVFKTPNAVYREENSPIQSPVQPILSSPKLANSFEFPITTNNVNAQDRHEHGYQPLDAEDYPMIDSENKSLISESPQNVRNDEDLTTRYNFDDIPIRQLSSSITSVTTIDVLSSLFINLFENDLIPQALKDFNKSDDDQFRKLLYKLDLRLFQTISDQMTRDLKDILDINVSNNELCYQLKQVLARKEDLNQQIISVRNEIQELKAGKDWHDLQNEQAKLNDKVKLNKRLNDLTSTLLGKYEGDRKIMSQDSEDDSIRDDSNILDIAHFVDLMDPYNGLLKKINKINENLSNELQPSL
Chain of COMA complex (Ame1/Okp1/Ctf19/Mcm21) (P53298 whole entry, chain 2 of 4): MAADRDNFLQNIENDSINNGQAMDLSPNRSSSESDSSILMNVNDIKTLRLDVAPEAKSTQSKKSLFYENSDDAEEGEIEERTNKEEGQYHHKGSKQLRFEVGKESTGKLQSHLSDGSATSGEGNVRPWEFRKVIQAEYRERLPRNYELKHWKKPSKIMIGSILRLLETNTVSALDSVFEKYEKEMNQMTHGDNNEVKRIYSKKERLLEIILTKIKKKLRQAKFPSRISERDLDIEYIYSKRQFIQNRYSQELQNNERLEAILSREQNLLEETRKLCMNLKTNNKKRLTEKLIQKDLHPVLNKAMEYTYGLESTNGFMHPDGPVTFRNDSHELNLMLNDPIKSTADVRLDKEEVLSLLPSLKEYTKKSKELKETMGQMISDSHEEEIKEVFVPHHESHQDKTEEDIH
Chain of COMA complex (Ame1/Okp1/Ctf19/Mcm21) (Q02732 whole entry, chain 3 of 4): as the sequence (Q02732 whole entry, chain 1 of 2) above
Chain of COMA complex (Ame1/Okp1/Ctf19/Mcm21) (Q06675 whole entry, chain 4 of 4): as the sequence (Q06675 whole entry, chain 2 of 2) above

Binder	binding result [1]	binding result [2]
B1	binds	–
B2	–	binds
